According to publication PMC5007355:

Columns and labels:
[1] = tested on: Fur (ferric uptake regulator) (Helicobacter pylori (strain G27?)); experiment: DNase I footprinting (protection); conditions: Footprinting: 15 fmol probe in 50 ul, 300 ng salmon sperm DNA, room temperature, 150 uM Fe2+ or dipyridyl, competitive buffer 20 mM HEPES pH 7.85, 50 mM KCl, 0.
[2] = tested on: Fur (ferric uptake regulator) (Helicobacter pylori (strain G27?)); experiment: DNase I footprinting (full protection); conditions: apo (150 uM 2,2'-dipyridyl); site fOPII; Footprinting: 15 fmol probe in 50 ul, 300 ng salmon sperm DNA, room temperature, 150 uM Fe2+ or dipyridyl; competitive buffer 20 mM HEPES pH 7.85, 50 mM KCl, 0.

**Q.** ParsR wild-type footprinting probe was tested. Which binding signal ([1]; apo (150 uM 2,2'-dipyridyl), site fOPI) did it give?
**A.** 75 nM

**Q.** And the binding signal ([1]; holo (150 uM Fe2+), site fOPI)?
**A.** 12 nM

**Q.** What about the binding signal ([1]; holo (150 uM Fe2+), site fOPIII (low affinity)) of the same substance?
**A.** 125 nM

**Q.** And the binding signal [2]?
**A.** 30 nM
